The values below come from paper PMC7807878, “Development of an engineered peptide antagonist against periostin to overcome doxorubicin resistance in breast cancer” (BMC Cancer, 2021).

Holding throughout (assay type): cell-based
For assay [1], the system named is MDA-MB-231 cells. Nature of the assay: Proliferation assay (MTS), MDA-MB-231. The note with it: rPN 100 ng/ml, 72 h, P-value = 0.004. The protocol:
(§1) The proliferation assay of BCA cells was determined by the cell viability assay using CellTiter 96® Aqueous One Solution Cell Proliferation Assay (MTS assay) (Promega, Madison, WI, USA). Briefly, 3 × 10^3 cells in 100 μl medium were seeded in 96-well plates for 24 h. The day 1 baseline determination used the MTS assay following company instructions. For the experiment, cells were placed into new media containing 2% FBS with or without rPN (100 ng/ml) and anti-PN peptide (1 μM) and cells were cultured for a further 72 h. After treatment, cell viability was measured by the MTS assay. Proliferation rate was calculated as the folding of cell numbers increased from the baseline.

Assay [2] relates to MCF-7 cells. Put plainly: Proliferation assay (MTS), MCF-7. Particulars: rPN 100 ng/ml, 72 h, not statistically significant. The protocol:
as §1

Assay [3] concerns MDA-MB-231 cells. Put plainly: Wound healing migration assay, MDA-MB-231. The note with it: rPN 100 ng/ml vs untreated control; P-value = 0.033. The protocol:
(§2) The wound healing assay was performed to determine migration activity of the BCA cells after treatment under various conditions. Briefly, 5 × 10^4 cells of parental BCA cells or mock/PN-transfected cells were seeded in 24-well culture plates with their regular media for 24 h and media changed to 1% FBS with or without rPN (100 ng/ml) and anti-PN peptide (1 μM) and culture continued for 1 day until they reached approximately 95% confluency. Wounds were applied by scratching using 200 μl micropipette tip in a single straight line. The media with floating cells would be removed and refilled with the new experimental media. The culture process would be continued for a further 24 h and photos of the area would be taken at 8 h intervals. The migration area would be analyzed from the photos taken using TScratch version 1.0 software (https://github.com/cselab/TScratch) and migration activity calculated as μm^2/h. Independent duplicated experiments were performed.

Assay [4] has as its system MCF-7 cells. Nature of the assay: Wound healing migration assay, MCF-7. The note with it: rPN 100 ng/ml vs untreated control; P-value = 0.030. The protocol: as §2
Assay [5] relates to MDA-MB-231 cells. Nature of the assay: Drug sensitivity (MTS), MDA-MB-231. The note with it: doxorubicin treated MDA-MB-231, rPN treatment experiment. The protocol:
(§3) Determination the IC50 of BCA cells in response to chemotherapeutic drugs was analyzed by MTS assay. The experiment started from 5 × 10^3 of BCA cells in 100 μl medium that were seeded in 96-well plates for 24 h, then media was changed with different concentrations of new chemotherapeutic drugs [doxorubicin (S1208), paclitaxel (S1150), cisplatin (S1166), 5-fluorouracil (5-FU) (S1209) and gemcitabine (S1714) that were purchased from Selleck Chemicals, Houston, TX, USA] with or without rPN and anti-PN peptide for a further 48 h. After that, cell viability was determined by the MTS assay. Combination index (CI) was calculated by IC50 of combination of drug and PN or anti-PN peptide divided by IC50 of chemotherapeutic drug alone.
(§4) ANOVA test or Student’s t-test were applied for statistical analysis of the experiments. GraphPad Prism® version 7.04 software (GraphPad Software, San Diego, CA, USA) was used in calculation of IC50 values of chemotherapeutic drugs and PASW Statistics software version 18 (SPSS, IBM, Armonk, NY, USA) was used for other analysis. Dose-responses were compared by Holm-Sidak’s multiple comparison test. Mann-Whitney ranked-sum test was used for comparisons between normal and patient serum PN. Chi-square or Fisher’s exact test were used to determine the correlation between PN expression and clinical data in BCA patients. […]

The subject of assay [6] is MCF-7 cells. Put plainly: Drug sensitivity (MTS), MCF-7. Particulars: doxorubicin treated MCF-7, rPN treatment experiment. The protocol:
as §3, §4

Assay [7] concerns Akt phosphorylation (pAKT) in BCA cells. Put plainly: Western blot, Akt phosphorylation. Particulars: parental BCA cells (MDA-MB-231, MCF-7), PN alone, duplicate experiments. The protocol: (§5) To determine the secreted PN amount in conditioned-media of each cell, 3 × 10^5 cells were seeded into 6-well plates with 3 ml of complete media. Cell media were removed the next day and washed with phosphate-buffered saline (PBS), and serum free media was added. Media was collected at 24 h, centrifuged and supernatant was taken and concentrated by Vivaspin®6 (VS0691, Sartorius, Goettingen, Germany). Protein concentration was determined by Bradford reagent (#5000006, Bio-Rad Laboratories, Hercules, CA, USA) and the amounts were adjusted to 5 μg per loading. To determine protein expression or phosphorylation in the cellular part, 2 × 10^6 cells were lysed with RIPA buffer (sc-24,948, Santa Cruz Biotechnology, Inc., Dallas, TX, USA). Each sample was separated by sodium dodecyl sulfate (SDS) polyacrylamide gel electrophoresis (PAGE) and transferred to PVDF membrane. […] HRP was detected by Pierce™ enhanced chemiluminescence (ECL) reagent (Thermo Fisher Scientific) and chemiluminescence signal was detected by G:BOX gel documentation system (Syngene, Cambridge, UK). Expression level of PN was determined by ImageJ version 1.52a software (National Institutes of Health, Bethesda, MD, USA).
(§6) Parental BCA cells were treated with PN and anti-PN peptides and the intracellular signaling pathway determined by western blot analysis. Akt phosphorylation and expression of survivin were detected. […]

Assay [8] deals with survivin expression in BCA cells. Put plainly: Western blot, survivin expression. The note with it: parental BCA cells (MDA-MB-231, MCF-7), PN alone, duplicate experiments. Here is the method: as §5, §6

B1: rPN: recombinant PN (periostin), BioVendor (protein)
chain: NNHYDKILAHSRIRGRDQGPNVCALQQILGTKKKYFSTCKNWYKKSICGQKTTVLYECCPGYMRMEGMKGCPAVLPIDHVYGTLGIVGATTTQRYSDASKLREEIEGKGSFTYFAPSNEAWDNLDSDIRRGLESNVNVELLNALHSHMINKRMLTKDLKNGMIIPSMYNNLGLFINHYPNGVVTVNCARIIHGNQIATNGVVHVIDRVLTQIGTSIQDFIEAEDDLSSFRAAAITSDILEALGRDGHFTLFAPTNEAFEKLPRGVLERIMGDKVASEALMKYHILNTLQCSESIMGGAVFETLEGNTIEIGCDGDSITVNGIKMVNKKDIVTNNGVIHLIDQVLIPDSAKQVIELAGKQQTTFTDLVAQLGLASALRPDGEYTLLAPVNNAFSDDTLSMDQRLLKLILQNHILKVKVGLNELYNGQILETIGGKQLRVFVYRTAVCIENSCMEKGSKQGRNGAIHIFREIIKPAEKSLHEKLKQDKRFSTFLSLLEAADLKELLTQPGDWTLFVPTNDAFKGMTSEEKEILIRDKNALQNIILYHLTPGVFIGKGFEPGVTNILKTTQGSKIFLKEVNDTLLVNELKSKESDIMTTNGVIHVVDKLLYPADTPVGNDQLLEILNKLIKYIQIKFVRGSTFKEIPVTVYTTKIITKVVEPKIKVIEGSLQPIIKTEGPTLTKVKIEGEPEFRLIKEGETITEVIHGEPIIKKYTKIIDGVPVEITEKETREERIITGPEIKYTRISTGGGETEETLKKLLQEEVTKVTKFIEGGDGHLFEDEEIKRLLQGDTPVRKLQANKKVQGSRRRLREGRSQ
As for B1, the “Effect of rPN on proliferation” value in the assay on MDA-MB-231 cells [1] is “significantly showed induction of cell proliferation”; in the assay with MCF-7 cells [2] it was “could increase cell numbers”. Further, the “Effect of rPN on migration rate” value with MDA-MB-231 cells [3] and in the assay with MCF-7 cells [4] was “had a higher migration rate than the untreated control with statistical significance” throughout. In addition, the “Combination index (CI) of PN” value in the assay with MDA-MB-231 cells [5] is listed as 2.36; in the assay on MCF-7 cells [6], 1.39. The “Effect of PN on Akt phosphorylation” value in assay [7] was “could increase phosphorylation of Akt”. In addition, in assay [8], the “Effect of PN on survivin expression” value is “could increase phosphorylation of Akt and survivin expression in all BCA cells”.
